In US20030232387A1 (Takeda / Millennium, published 2003):
Several values for one entry are separate records, joined by “and”; a condition that tells them apart may be missing. Identical values can stand only once.

Assays:
[1] = biological target: T1, human αEβ7 integrin expressed on cells (human, UniProt P38570 19-1179; P26010 20-798); experiment: cell adhesion assay, inhibition of K562 αEβ7 cells binding to immobilised E-cadherin-IgG
T1 construct: also called K562 transfectants that express αEβ7; L1.2 αEβ7 transfectants
Experimental: ELISA plates were coated with 100 ng/well E-cadherin-IgG fusion protein in TBS (20 mM Tris, 140 mM NaCl, pH 9)/1 mM CaCl₂ overnight at 4° C. Plates were washed with wash buffer (HBSS/1 mM CaCl₂), and blocked with HBSS/1 mM CaCl₂/2% BSA for one hour at 37° C. After blocking, plates were washed twice with wash buffer. K562 transfectants at log growth stage were collected, washed once in HBSS/0.2% BSA/1 mM CaCl₂/1 mM MgCl₂, and resuspended to 4×10⁶ cells/mL in the same buffer. Cells were labeled with the fluorecent dye BCECF-AM (Molecular Probes, 4 μg/ml final concentration) for 15 minutes at […]. Labeled cells were washed twice, and resuspended in assay buffer (HBSS/0.2% BSA/1 mM CaCl₂/1 mM MgCl₂/1 mM MnCl₂) to 8×10⁵ cells/mL. 50 μl of the cell suspension was added to the E-cadherin-IgG coated well (4×10⁴ cells/well), and mixed with 50 μl assay buffer containing antibodies with desired concentration, or isotype-matched control antibody. The plate was then incubated at room temperature for 1 hour. The fluorescence content in each well was read on a Fluorescent Concentration Analyser (IDEXX, Westbrook, Me.) before and after three washes with HBSS/0.5 mM CaCl₂/0.5 mM MgCl₂/0.5 mM MnCl₂ using a Microplate Autowasher (Bio-Tek instruments, Winooski, Vt.). The Microplate Autowasher was programmed with parameters: 250 μl wash volume, 1× wash cycle, 0 soak time, and aspiration tube depth of 70. The bound cells (after washes) were expressed as a percentage of total input cells (before washes) in each well. Each sample was set up in triplicate wells.

[2] = biological target: T2, α4β7 integrin expressed on transfected K562 cells (human, UniProt P13612 34-1032; P26010 20-798); experiment: flow cytometry on K562 α4β7 transfectants
T2 construct: How the α4β7 transfectants were made is not described; also called α4β7 transfectants

[3] = biological target: mutant αEβ7 integrin, αE F298A, on transfected K562 cells (human, UniProt P38570 19-1179; P26010 20-798, F298A); experiment: flow cytometry on K562 cells expressing αEβ7 with αE F298A
Experimental: The fine specificity of mAb 5E4 was determined using a panel of transfected K562 cells that expressed various mutant αEβ7 integrins and detecting antibody binding to the transfectants by flow cytometry. The mutants proteins and methods used have been previously described in Higgins, J. M. G. et al., J. Biol. Chem. 275:25652-25664 (2000). The mutant αEβ7 integrins used contained the following mutations in the αE chain: R159S/R160S; ΔE163-E180; ΔE176; D190A; G193A; D199A; R202A/D205A; G230A/V231A; D240A; F298A; P311H/E345A/T346A; E325A; and Y354W. (See, Higgins, J. M. G. et al., J. Biol. Chem. 275:25652-25664 (2000).)
The fine specificity of mAb 5E4 was examined using transfected K562 cells that expressed αEβ7 integrin or mutated version of αEβ7 integrins, and antibody binding was detected by flow cytometry. Antibody binding was inhibited by deletion of amino acid residues 163-180 (ΔE163-E180; amino acid residues 163-180 of SEQ ID NO: 2), which are in the X domain of integrin αE chain, and was essentially abrogated by mutation of amino acid residue 298 (amino acid residue 298 of SEQ ID NO:2), which is in the I-domain, from Phenylalanine to Alanine (F298A).

T1 sequence (P38570 other isoform, or with tags, fused parts or gaps limits assumed, chain 1 of 2): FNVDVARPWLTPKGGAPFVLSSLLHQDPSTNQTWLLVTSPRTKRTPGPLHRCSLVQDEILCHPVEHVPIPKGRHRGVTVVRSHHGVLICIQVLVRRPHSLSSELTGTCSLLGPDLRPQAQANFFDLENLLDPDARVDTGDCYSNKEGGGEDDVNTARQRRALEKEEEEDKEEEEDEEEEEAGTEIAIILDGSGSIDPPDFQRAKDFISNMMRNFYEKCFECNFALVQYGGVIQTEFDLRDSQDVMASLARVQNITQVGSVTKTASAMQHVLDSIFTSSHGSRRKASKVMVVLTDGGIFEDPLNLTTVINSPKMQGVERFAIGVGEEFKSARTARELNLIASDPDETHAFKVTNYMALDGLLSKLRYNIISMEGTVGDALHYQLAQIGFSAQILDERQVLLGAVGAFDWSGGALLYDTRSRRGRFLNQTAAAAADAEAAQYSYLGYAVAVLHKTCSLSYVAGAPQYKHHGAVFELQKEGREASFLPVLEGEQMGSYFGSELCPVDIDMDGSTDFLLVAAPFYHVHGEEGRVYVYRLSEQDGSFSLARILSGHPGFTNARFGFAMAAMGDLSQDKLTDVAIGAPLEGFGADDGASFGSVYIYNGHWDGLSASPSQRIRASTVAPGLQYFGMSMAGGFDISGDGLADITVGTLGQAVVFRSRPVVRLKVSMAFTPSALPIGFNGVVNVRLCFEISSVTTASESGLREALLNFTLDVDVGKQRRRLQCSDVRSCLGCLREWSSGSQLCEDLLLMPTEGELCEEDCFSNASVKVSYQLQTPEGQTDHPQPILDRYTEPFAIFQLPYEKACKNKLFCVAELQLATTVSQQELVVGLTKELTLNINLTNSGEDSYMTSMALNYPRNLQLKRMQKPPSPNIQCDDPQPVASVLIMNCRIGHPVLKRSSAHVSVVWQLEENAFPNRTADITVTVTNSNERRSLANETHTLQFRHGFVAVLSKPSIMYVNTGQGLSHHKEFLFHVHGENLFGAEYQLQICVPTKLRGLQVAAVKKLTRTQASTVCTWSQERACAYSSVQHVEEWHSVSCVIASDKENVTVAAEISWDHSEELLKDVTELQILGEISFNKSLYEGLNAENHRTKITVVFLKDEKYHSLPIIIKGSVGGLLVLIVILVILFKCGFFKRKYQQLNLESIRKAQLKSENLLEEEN
T1 sequence (P26010 20-798 limits assumed, chain 2 of 2): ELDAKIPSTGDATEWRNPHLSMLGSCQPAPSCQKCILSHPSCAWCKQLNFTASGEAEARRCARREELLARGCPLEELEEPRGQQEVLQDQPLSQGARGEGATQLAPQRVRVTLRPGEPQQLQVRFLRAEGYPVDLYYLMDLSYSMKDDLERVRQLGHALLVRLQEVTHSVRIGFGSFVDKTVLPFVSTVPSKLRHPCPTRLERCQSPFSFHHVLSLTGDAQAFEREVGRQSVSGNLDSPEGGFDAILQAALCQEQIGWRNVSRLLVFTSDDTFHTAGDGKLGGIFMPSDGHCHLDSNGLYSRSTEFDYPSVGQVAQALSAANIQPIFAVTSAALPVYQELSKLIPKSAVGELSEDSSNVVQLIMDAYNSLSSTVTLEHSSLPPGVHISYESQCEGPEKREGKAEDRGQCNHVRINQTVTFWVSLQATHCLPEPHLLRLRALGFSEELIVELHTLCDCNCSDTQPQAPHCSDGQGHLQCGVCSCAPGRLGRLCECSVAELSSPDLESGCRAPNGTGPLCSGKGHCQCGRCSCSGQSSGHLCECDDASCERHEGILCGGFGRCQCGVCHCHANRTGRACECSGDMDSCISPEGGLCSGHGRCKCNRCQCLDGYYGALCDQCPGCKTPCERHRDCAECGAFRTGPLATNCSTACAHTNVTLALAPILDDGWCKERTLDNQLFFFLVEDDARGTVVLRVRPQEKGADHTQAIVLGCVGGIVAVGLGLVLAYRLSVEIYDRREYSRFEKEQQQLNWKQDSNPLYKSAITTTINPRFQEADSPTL
T2 sequence (P13612 34-1032 R878Q limits assumed, chain 1 of 2): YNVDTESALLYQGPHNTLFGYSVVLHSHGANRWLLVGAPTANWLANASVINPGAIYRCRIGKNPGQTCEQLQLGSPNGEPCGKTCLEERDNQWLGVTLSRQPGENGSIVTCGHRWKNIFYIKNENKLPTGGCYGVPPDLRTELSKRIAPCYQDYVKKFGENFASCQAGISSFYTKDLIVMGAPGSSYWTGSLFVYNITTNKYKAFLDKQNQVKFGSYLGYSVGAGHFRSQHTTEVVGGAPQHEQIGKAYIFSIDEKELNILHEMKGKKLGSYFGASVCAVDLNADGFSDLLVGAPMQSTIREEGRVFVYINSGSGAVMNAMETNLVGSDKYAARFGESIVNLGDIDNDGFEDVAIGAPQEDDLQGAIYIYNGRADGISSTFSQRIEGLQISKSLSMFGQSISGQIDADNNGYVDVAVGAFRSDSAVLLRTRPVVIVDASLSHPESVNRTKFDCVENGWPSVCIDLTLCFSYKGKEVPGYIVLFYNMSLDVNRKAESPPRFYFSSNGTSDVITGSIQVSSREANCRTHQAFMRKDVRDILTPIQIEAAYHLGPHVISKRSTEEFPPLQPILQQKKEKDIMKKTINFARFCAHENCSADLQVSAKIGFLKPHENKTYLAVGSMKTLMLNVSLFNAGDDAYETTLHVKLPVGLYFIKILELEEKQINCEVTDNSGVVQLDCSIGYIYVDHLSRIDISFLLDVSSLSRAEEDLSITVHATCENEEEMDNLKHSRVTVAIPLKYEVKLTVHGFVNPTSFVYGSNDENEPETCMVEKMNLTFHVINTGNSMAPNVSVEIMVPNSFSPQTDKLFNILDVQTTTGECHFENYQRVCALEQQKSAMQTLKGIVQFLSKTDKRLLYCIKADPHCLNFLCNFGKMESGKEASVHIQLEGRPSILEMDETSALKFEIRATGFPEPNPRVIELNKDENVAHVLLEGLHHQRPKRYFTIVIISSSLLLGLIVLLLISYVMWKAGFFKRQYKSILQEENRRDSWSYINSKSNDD
T2 sequence (P26010 20-798 limits assumed, chain 2 of 2): as the sequence (P26010 20-798 limits assumed, chain 2 of 2) above
mutant αEβ7 integrin, αE F298A, on transfected K562 cells, sequence (P38570 other isoform, or with tags, fused parts or gaps F298A | F298A F298A, chain 1 of 2): as the sequence (P38570 other isoform, or with tags, fused parts or gaps limits assumed, chain 1 of 2) above, with F298A counted along it
mutant αEβ7 integrin, αE F298A, on transfected K562 cells, sequence (P26010 20-798, chain 2 of 2): as the sequence (P26010 20-798 limits assumed, chain 2 of 2) above

Binder | IC50 [1] | binding result [2] | binding result [3]
mAb 8D5 (antibody, V domains shown, also called 8D5 IgG2; human mAb 8D5 (IgG2)) VH: QVQLQESGPGLVKPSETLSLTCTVSGGSVSSYYWSWIRQPPGKGLEWIGHIYYSGNTNYNPSLKSRVTISVDTSKNQFSLKLSSVTAADTAVYFCARDRWNYYDSSPGYYYYYGMDVWGQGTTVTVSS VL: DIQMTQSPSSLSASVGDRVTITCRASQGIRNDLGWYQQKPGKAPKRLIFAASHLQSGVPSRFSGSGSGTEFTLTISSLQPEDFATYYCQQHNSSPFTFGPGTRVDIK |  | no binding | 
mAb 5E4 (IgG1) (antibody, V domains shown, Human antibody; also called converted 5E4 (IgG1); antibody produced by CHO 5G4 A1.2C12) VH: EVQLVESGGGLVQPGGSLRLSCAASGFTFSNFWMSWVRQAPGKGLEWMANIKQDGSEKYYVDSVKGRFTISRDNAKSSLFLQMNSLRVDDTAVYFCAGDYYDSGSFYWGQGTLVTVSS VL: EIVLTQSPATLSLSPGERATLSCRASQSVRSNLAWYQQKPGQAPRLLIYDASNRAIGIPARFSGSGSGTDFTLTISSLEPEDFVVYYCQQRSNWPPWTFGQGTKVEIK | ~1.29 µg/mL and ~8.5 nM | no binding | 

Further lines, results first:

IC50 [1] | binding result [2] | binding result [3] | Binder
~0.715 µg/mL and ~4.7 nM |  |  | mAb 8D5 (IgG1) (antibody, V domains shown, The variable domains are the same either way) VH: QVQLQESGPGLVKPSETLSLTCTVSGGSVSSYYWSWIRQPPGKGLEWIGHIYYSGNTNYNPSLKSRVTISVDTSKNQFSLKLSSVTAADTAVYFCARDRWNYYDSSPGYYYYYGMDVWGQGTTVTVSS VL: DIQMTQSPSSLSASVGDRVTITCRASQGIRNDLGWYQQKPGKAPKRLIFAASHLQSGVPSRFSGSGSGTEFTLTISSLQPEDFATYYCQQHNSSPFTFGPGTRVDIK
~2.04 µg/mL and ~13.4 nM | no binding |  | mAb 3G6 (IgG1) (antibody, V domains shown, Human antibody; also called converted 3G6 (IgG1); antibody produced by CHO 3G6 C1.2D6) VH: EVQLVQSGAEVKKPGESLKISCKGSGYSFTSYWIGWVRQMPGKGLEWMGIIYPGDSGPRYSPSFQGQVTISADKSISTAYLQWSSLKASDTAMYYCARLSYTSTWYPYYFDYWGQGTLVTVSS VL: not shown
 |  | no binding | mAb 5E4 (antibody, V domains shown, The variable domains are the same as in m3 and m4) VH: EVQLVESGGGLVQPGGSLRLSCAASGFTFSNFWMSWVRQAPGKGLEWMANIKQDGSEKYYVDSVKGRFTISRDNAKSSLFLQMNSLRVDDTAVYFCAGDYYDSGSFYWGQGTLVTVSS VL: EIVLTQSPATLSLSPGERATLSCRASQSVRSNLAWYQQKPGQAPRLLIYDASNRAIGIPARFSGSGSGTDFTLTISSLEPEDFVVYYCQQRSNWPPWTFGQGTKVEIK
